Source: patent publication US20230250154A1 (CYTONICS, published 2023)

T1: ADAMTS4 (human, UniProt O75173 213-685, limits assumed)
T1 sequence (looked up): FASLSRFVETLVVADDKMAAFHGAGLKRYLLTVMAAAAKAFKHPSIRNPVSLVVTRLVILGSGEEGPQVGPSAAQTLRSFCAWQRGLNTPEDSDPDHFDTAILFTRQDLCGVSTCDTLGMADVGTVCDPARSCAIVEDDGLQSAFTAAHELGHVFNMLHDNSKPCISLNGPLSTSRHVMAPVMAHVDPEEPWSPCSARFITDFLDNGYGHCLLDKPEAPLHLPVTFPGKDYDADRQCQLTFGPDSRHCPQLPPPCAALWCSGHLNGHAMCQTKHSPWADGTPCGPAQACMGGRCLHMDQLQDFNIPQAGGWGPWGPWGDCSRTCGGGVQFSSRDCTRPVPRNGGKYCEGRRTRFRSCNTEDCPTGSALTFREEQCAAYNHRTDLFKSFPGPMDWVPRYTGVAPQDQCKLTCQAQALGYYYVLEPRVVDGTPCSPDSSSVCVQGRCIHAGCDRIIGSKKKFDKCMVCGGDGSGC

T2: ADAMTS5 (human, UniProt Q9UNA0 262-622, limits assumed)
T2 sequence (looked up): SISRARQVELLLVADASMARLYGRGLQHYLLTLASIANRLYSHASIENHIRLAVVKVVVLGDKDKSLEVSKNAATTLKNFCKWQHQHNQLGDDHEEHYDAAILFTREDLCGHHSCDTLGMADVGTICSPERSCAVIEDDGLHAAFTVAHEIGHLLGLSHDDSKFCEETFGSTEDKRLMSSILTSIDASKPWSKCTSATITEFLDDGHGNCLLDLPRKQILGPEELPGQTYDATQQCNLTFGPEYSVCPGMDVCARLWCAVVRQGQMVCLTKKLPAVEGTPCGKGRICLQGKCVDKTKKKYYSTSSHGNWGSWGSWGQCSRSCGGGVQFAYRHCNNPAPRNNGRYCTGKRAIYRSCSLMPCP


Experiments:
Assay in all cases: cell-based or functional assay
ADAMTS4 = target: T1, ADAMTS4
ADAMTS5 = target: T2, ADAMTS5
MMP13 = MMP13 (human, UniProt P45452 104-471, limits assumed)

Protease Inhibition (% of WT) (ADAMTS4)	Protease Inhibition (% of WT) (ADAMTS5)	Protease Inhibition (% of WT) (MMP13)	Binder
101 % of WT	208 % of WT	51 % of WT	Variant A2M, bait region SEQ ID NO 110 (other) SVSGKPQYMVLVPSLLHTETTEKGCVLLSYLNETVTVSASLESVRGNRSLFTDLEAENDVLHCVAFAVPKSSSNEEVMFLTVQVKGPTQEFKKRTTVMVKNEDSLVFVQTDKSIYKPGQTVKFRVVSMDENFHPLNELIPLVYIQDPKGNRIAQWQSFQLEGGLKQFSFPLSSEPFQGSYKVVVQKKSGGRTEHPFTVEEFVLPKFEVQVTVPKIITILEEEMNVSVCGLYTYGKPVPGHVTVSICRKYSDASDCHGEDSQAFCEKFSGQLNSHGCFYQQVKTKVFQLKRKEYEMKLHTEAQIQEEGTVVELTGRQSSEITRTITKLSFVKVDSHFRQGIPFFGQVRLVDGKGVPIPNKVIFIRGNEANYYSNATTDEHGLVQFSINTTNVMGTSLTVRVNYKDRSPCYGYQWVSEEHEEAHHTAYLVFSPSKSFVHLEPMSHELPCGHTQTVQAHYILNGGTLLGLKKLSFYYLIMAKGGIVRTGTHGLLVKQEDMKGHFSISIPVKSDIAPVARLLIYAVLPTGDVIGDSAKYDVENCLANKVDLSFSPSQSLPASHAHLRVTAAPQSVCALRAVDQSVLLMKPDAELSASSVYNLLPEKDLTGFPGPLNDQDDEDCINRHNVYINGITYTPVSSTNEKDMYSFLEDMGLKAFTNSKIRKPKMCPQLETEGRGEREAQGEFPEVEGEEEGGGPEKETGGEREAQGKLRKYFPETWIWDLVVVNSAGVAEVGVTVPDTITEWKAGAFCLSEDAGLGISSTASLRAFQPFFVELTMPYSVIRGEAFTLKATVLNYLPKCIRVSVQLEASPAFLAVPVEKEQAPHCICANGRQTVSWAVTPKSLGNVNFTVSAEALESQELCGTEVPSVPEHGRKDTVIKPLLVEPEGLEKETTFNSLLCPSGGEVSEELSLKLPPNVVEESARASVSVLGDILGSAMQNTQNLLQMPYGCGEQNMVLFAPNIYVLDYLNETQQLTPEIKSKAIGYLNTGYQRQLNYKHYDGSYSTFGERYGRNQGNTWLTAFVLKTFAQARAYIFIDEAHITQALIWLSQRQKDNGCFRSSGSLLNNAIKGGVEDEVTLSAYITIALLEIPLTVTHPVVRNALFCLESAWKTAQEGDHGSHVYTKALLAYAFALAGNQDKRKEVLKSLNEEAVKKDNSVHWERPQKPKAPVGHFYEPQAPSAEVEMTSYVLLAYLTAQPAPTSEDLTSATNIVKWITKQQNAQGGFSSTQDTVVALHALSKYGAATFTRTGKAAQVTIQSSGTFSSKFQVDNNNRLLLQQVSLPELPGEYSMKVTGEGCVYLQTSLKYNILPEKEEFPFALGVQTLPQTCDEPKAHTSFQISLSVSYTGSRSASNMAIVDVKMVSGFIPLKPTVKMLERSNHVSRTEVSSNHVLIYLDKVSNQTLSLFFTVLQDVPVRDLKPAIVKVYDYYETDEFAIAEYNAPCSKDLGNADYKDDDDKGASHHHHHH
112 % of WT	105 % of WT	122 % of WT	Variant A2M, bait region SEQ ID NO 109 (other) SVSGKPQYMVLVPSLLHTETTEKGCVLLSYLNETVTVSASLESVRGNRSLFTDLEAENDVLHCVAFAVPKSSSNEEVMFLTVQVKGPTQEFKKRTTVMVKNEDSLVFVQTDKSIYKPGQTVKFRVVSMDENFHPLNELIPLVYIQDPKGNRIAQWQSFQLEGGLKQFSFPLSSEPFQGSYKVVVQKKSGGRTEHPFTVEEFVLPKFEVQVTVPKIITILEEEMNVSVCGLYTYGKPVPGHVTVSICRKYSDASDCHGEDSQAFCEKFSGQLNSHGCFYQQVKTKVFQLKRKEYEMKLHTEAQIQEEGTVVELTGRQSSEITRTITKLSFVKVDSHFRQGIPFFGQVRLVDGKGVPIPNKVIFIRGNEANYYSNATTDEHGLVQFSINTTNVMGTSLTVRVNYKDRSPCYGYQWVSEEHEEAHHTAYLVFSPSKSFVHLEPMSHELPCGHTQTVQAHYILNGGTLLGLKKLSFYYLIMAKGGIVRTGTHGLLVKQEDMKGHFSISIPVKSDIAPVARLLIYAVLPTGDVIGDSAKYDVENCLANKVDLSFSPSQSLPASHAHLRVTAAPQSVCALRAVDQSVLLMKPDAELSASSVYNLLPEKDLTGFPGPLNDQDDEDCINRHNVYINGITYTPVSSTNEKDMYSFLEDMGLKAFTNSKIRKPKMCPQLEPAGAARGESESEGGFFGFPIGERESTGGDRGLPIGENEAGGKLRKYFPETWIWDLVVVNSAGVAEVGVTVPDTITEWKAGAFCLSEDAGLGISSTASLRAFQPFFVELTMPYSVIRGEAFTLKATVLNYLPKCIRVSVQLEASPAFLAVPVEKEQAPHCICANGRQTVSWAVTPKSLGNVNFTVSAEALESQELCGTEVPSVPEHGRKDTVIKPLLVEPEGLEKETTFNSLLCPSGGEVSEELSLKLPPNVVEESARASVSVLGDILGSAMQNTQNLLQMPYGCGEQNMVLFAPNIYVLDYLNETQQLTPEIKSKAIGYLNTGYQRQLNYKHYDGSYSTFGERYGRNQGNTWLTAFVLKTFAQARAYIFIDEAHITQALIWLSQRQKDNGCFRSSGSLLNNAIKGGVEDEVTLSAYITIALLEIPLTVTHPVVRNALFCLESAWKTAQEGDHGSHVYTKALLAYAFALAGNQDKRKEVLKSLNEEAVKKDNSVHWERPQKPKAPVGHFYEPQAPSAEVEMTSYVLLAYLTAQPAPTSEDLTSATNIVKWITKQQNAQGGFSSTQDTVVALHALSKYGAATFTRTGKAAQVTIQSSGTFSSKFQVDNNNRLLLQQVSLPELPGEYSMKVTGEGCVYLQTSLKYNILPEKEEFPFALGVQTLPQTCDEPKAHTSFQISLSVSYTGSRSASNMAIVDVKMVSGFIPLKPTVKMLERSNHVSRTEVSSNHVLIYLDKVSNQTLSLFFTVLQDVPVRDLKPAIVKVYDYYETDEFAIAEYNAPCSKDLGNADYKDDDDKGASHHHHHH
92 % of WT	108 % of WT	136 % of WT	Variant A2M, bait region SEQ ID NO 107 (other) SVSGKPQYMVLVPSLLHTETTEKGCVLLSYLNETVTVSASLESVRGNRSLFTDLEAENDVLHCVAFAVPKSSSNEEVMFLTVQVKGPTQEFKKRTTVMVKNEDSLVFVQTDKSIYKPGQTVKFRVVSMDENFHPLNELIPLVYIQDPKGNRIAQWQSFQLEGGLKQFSFPLSSEPFQGSYKVVVQKKSGGRTEHPFTVEEFVLPKFEVQVTVPKIITILEEEMNVSVCGLYTYGKPVPGHVTVSICRKYSDASDCHGEDSQAFCEKFSGQLNSHGCFYQQVKTKVFQLKRKEYEMKLHTEAQIQEEGTVVELTGRQSSEITRTITKLSFVKVDSHFRQGIPFFGQVRLVDGKGVPIPNKVIFIRGNEANYYSNATTDEHGLVQFSINTTNVMGTSLTVRVNYKDRSPCYGYQWVSEEHEEAHHTAYLVFSPSKSFVHLEPMSHELPCGHTQTVQAHYILNGGTLLGLKKLSFYYLIMAKGGIVRTGTHGLLVKQEDMKGHFSISIPVKSDIAPVARLLIYAVLPTGDVIGDSAKYDVENCLANKVDLSFSPSQSLPASHAHLRVTAAPQSVCALRAVDQSVLLMKPDAELSASSVYNLLPEKDLTGFPGPLNDQDDEDCINRHNVYINGITYTPVSSTNEKDMYSFLEDMGLKAFTNSKIRKPKMCPQLEQYEMHGPEGLRVGIPENFFGVTSEDLVVQEAIPMSIPKLRKYFPETWIWDLVVVNSAGVAEVGVTVPDTITEWKAGAFCLSEDAGLGISSTASLRAFQPFFVELTMPYSVIRGEAFTLKATVLNYLPKCIRVSVQLEASPAFLAVPVEKEQAPHCICANGRQTVSWAVTPKSLGNVNFTVSAEALESQELCGTEVPSVPEHGRKDTVIKPLLVEPEGLEKETTFNSLLCPSGGEVSEELSLKLPPNVVEESARASVSVLGDILGSAMQNTQNLLQMPYGCGEQNMVLFAPNIYVLDYLNETQQLTPEIKSKAIGYLNTGYQRQLNYKHYDGSYSTFGERYGRNQGNTWLTAFVLKTFAQARAYIFIDEAHITQALIWLSQRQKDNGCFRSSGSLLNNAIKGGVEDEVTLSAYITIALLEIPLTVTHPVVRNALFCLESAWKTAQEGDHGSHVYTKALLAYAFALAGNQDKRKEVLKSLNEEAVKKDNSVHWERPQKPKAPVGHFYEPQAPSAEVEMTSYVLLAYLTAQPAPTSEDLTSATNIVKWITKQQNAQGGFSSTQDTVVALHALSKYGAATFTRTGKAAQVTIQSSGTFSSKFQVDNNNRLLLQQVSLPELPGEYSMKVTGEGCVYLQTSLKYNILPEKEEFPFALGVQTLPQTCDEPKAHTSFQISLSVSYTGSRSASNMAIVDVKMVSGFIPLKPTVKMLERSNHVSRTEVSSNHVLIYLDKVSNQTLSLFFTVLQDVPVRDLKPAIVKVYDYYETDEFAIAEYNAPCSKDLGNADYKDDDDKGASHHHHHH
